The record followed here is paper PMC5890176.

For data set [1], the system named is SpnHU (HU, histone-like protein) (Streptococcus pneumoniae R6). Nature of the data set: EMSA (agarose). As to conditions: 2 nM DNA, 10 mM Tris-HCl pH 8.0, 50 mM KCl, 0.05% Brij 58, 0.01 mg/ml BSA, 5% glycerol, 0.01 mM EDTA, 0.01 mM DTT, room temperature 20 min, 0.5% agarose in TBE. In general terms: Mobility shift assays separate free from complexed probe on a gel.

In data set [2] the target is HU of Streptococcus pneumoniae (SpnHU) (Streptococcus pneumoniae R6). Nature of the data set: cross-linking; 0.1% glutaraldehyde, room temperature, 30 min, 5 mM Tris-HCl pH 8.0, 25 mM KCl, 25% glycerol, 0.25 mM EDTA, 0.25 mM DTT; SDS-PAGE (15%), Coomassie; all tested concentrations.

Turning to pBR322 supercoiled, the binding signal in data set [1] (SpnHU concentration at which shift seen) was found to be 0.2 µM. The stoichiometry N is a count of units in the complex or per binding partner. With “HU of Streptococcus pneumoniae (SpnHU) (natural protein)”, the stoichiometry N in data set [2] is 2. Regarding pBR322 nicked (Nt.BstNBI), in data set [1] (SpnHU concentration required for shift (16-fold more than supercoiled), nicked with Nt.BstNBI), the binding signal was 3.2 µM.

Regarding pBR322 linear (PstI), the binding signal in data set [1] (SpnHU concentration required for shift (8-fold more than supercoiled)) is 1.6 µM.
